Measured values taken from publication PMC3977997, “Engineering the Expression and Characterization of Two Novel Laccase Isoenzymes from Coprinus comatus in Pichia pastoris by Fusing an Additional Ten Amino Acids Tag at N-Terminus” (PLoS ONE, 2014).

Columns and labels:
Test in all cases: purified protein
Conditions in all cases: air oxygen
[1] = substrate: COc1ccccc1O
[2] = substrate: CCn1c(=NN=c2sc3cc(S(=O)(=O)O)ccc3n2CC)sc2cc(S(=O)(=O)O)ccc21; assay type: biochemical, Coprinus comatus
[3] = substrate: COc1cc(C=NN=Cc2cc(OC)c(O)c(OC)c2)cc(OC)c1O; assay type: biochemical, Coprinus comatus
[4] = substrate: Cc1cccc(C)c1O; assay type: biochemical, Coprinus comatus
[5] = pH 5.0, optimal temperature 50 °C, 50.0 °C
[6] = pH 3.0, optimal temperature 65 °C
[7] = pH 5.0 (optimum elsewhere given as 5.5), optimal temperature 60 °C
[8] = pH 5.5 (optimum elsewhere given as 5.0), optimal temperature 60 °C
[9] = pH 6.0, optimal temperature 60 °C, 60.0 °C
[10] = pH 3.0, optimal temperature 60 °C
[11] = pH 6.0 (optimum elsewhere given as 5.5), optimal temperature 65 °C
[12] = pH 5.5 (optimum elsewhere given as 6.0), optimal temperature 65 °C

B1: Lac3 (Coprinus comatus) (protein)
chain: SVLIPHSTLTLTNQLIAPDGFQRSAIVVNGEHPGPLIQATKGDGFMVNVVNQLTDPTMQRAASVHWHGLSQRGTNWADGATGVNQCPISPNHSFEYTFTGGDSQAGTFWYHSHYFLQYCDGLRGPLVIYDPEDPWKNLYDVDDESTVLTLADWYHTPFPSIPGFPLPESTLINGKGRYPDGPNVDLSIVNVEKGKRYRFRLVSLACETSYLFGIDGHQLQVIETDGQNTVPVVVDKLRIFAGQRYSFVLDANQNIDNYWVRSLPANGMPKLVAGYEGGINSAILRYRGAPISDPQTNDNQNLILLEEAKLVPAQDPFPPGNPTAGGADFNVTLNFVLDVDLASGEPQFKLNDKVYRPPSVPILLKILSGARRPEELLPEGNLFSVPRDKVIEVTVPGGIAAGPHPMHLHGHTFSVVKSAGKNNQPNYLTPVRRDVTATSQEVDDYITIRFTTDNPGPWLLHCHLNKHHESGMVVVFVADVDSVAEENPVPDAWNDLCPIYDALSDAEKEVKIVSSLPMPV
notes: mature form (547-aa precursor, 28-aa putative signal peptide removed); pPICZalphaB-10AALac3; secreted from Pichia pastoris KM71H; glycosylated, about 75 kDa (55 kDa after endoH)
Km [1, 5]: 1114 µM | kcat [1, 5]: 0.418 s⁻¹ | kcat/Km [1, 5]: 375 M⁻¹ s⁻¹ | Km [2, 6]: 136 µM | kcat [2, 6]: 3.48 s⁻¹ | kcat/Km [2, 6]: 25600 M⁻¹ s⁻¹ | Km [3, 7]: 87 µM | kcat [3, 7]: 32 s⁻¹ | kcat/Km [3, 7]: 367000 M⁻¹ s⁻¹ | Km [4, 8]: 1374 µM | kcat [4, 8]: 0.307 s⁻¹ | kcat/Km [4, 8]: 223 M⁻¹ s⁻¹

B2: Lac4 (Coprinus comatus) (protein)
chain: LSVGPRATLTLTNDVVAPDGFERSAIVVNGGHPGPLIQANKGDAYTINVVNRLTDSTMQRVSSIHWHGLSQRGTNWADGGSGVNQCPISPNHSFEYQFSGRKDQAGTFWYHSHYSIQYCDGLRGPLVIYDPNDPFKNLYDVDDESTVITLTDWYHTPFPSVTGPPTSDSTLINGKGRYPGGPNVDLSVINVERGKRYRFRLVALTCENSHLFGIDGHQLLVIETGGESTVPTLVDKITLLAGQRYSFVLDANQAVDNYWIRGLPRSGVPSLKAGYEGGLNSAILRYQGAPITEPQTTDNENAALLDEAQLVPTRNPFAPGRPTSGGADFNVTVNFELDLTTGSPHFKLNGKIYQPPTVPILLQIISGARKAEELLPEGNIYFVPRNKVVEVTVPGGIPGAPHPMHLHGHHFSVVKSAGKHNQVNYLTPVRRDTTASPVEVDDNTTIRFTTDSPGPWIFHCHFNKHQSIGMAVVFVADIDEVAEKNPTPDAWNDLCPIYQSLSESETVVEIVPMVKH
notes: mature form (532-aa precursor, 16-aa putative signal peptide removed); pPICZalphaB-10AALac4; secreted from Pichia pastoris KM71H; glycosylated, about 70 kDa (52 kDa after endoH)
Km [1, 9]: 455 µM | kcat [1, 9]: 0.196 s⁻¹ | kcat/Km [1, 9]: 503 M⁻¹ s⁻¹ | Km [2, 10]: 205 µM | kcat [2, 10]: 1.47 s⁻¹ | kcat/Km [2, 10]: 7170 M⁻¹ s⁻¹ | Km [3, 11]: 204 µM | kcat [3, 11]: 44.7 s⁻¹ | kcat/Km [3, 11]: 220000 M⁻¹ s⁻¹ | Km [4, 12]: 7131 µM | kcat [4, 12]: 1.47 s⁻¹ | kcat/Km [4, 12]: 206 M⁻¹ s⁻¹
